Biological target: matrilin-3 (wild type, mouse) (mouse (endogenous in mouse cartilage and chondrocytes)) (UniProt O35701)
Assay: non-reducing SDS-PAGE and Western blot; total protein lysates of isolated chondrocytes of 5-day-old mice, 4-12% gels, non-reduced against reduced (0.1 M DTT); oligomers assigned by apparent size

Chain of matrilin-3 (wild type, mouse) (O35701 28-481): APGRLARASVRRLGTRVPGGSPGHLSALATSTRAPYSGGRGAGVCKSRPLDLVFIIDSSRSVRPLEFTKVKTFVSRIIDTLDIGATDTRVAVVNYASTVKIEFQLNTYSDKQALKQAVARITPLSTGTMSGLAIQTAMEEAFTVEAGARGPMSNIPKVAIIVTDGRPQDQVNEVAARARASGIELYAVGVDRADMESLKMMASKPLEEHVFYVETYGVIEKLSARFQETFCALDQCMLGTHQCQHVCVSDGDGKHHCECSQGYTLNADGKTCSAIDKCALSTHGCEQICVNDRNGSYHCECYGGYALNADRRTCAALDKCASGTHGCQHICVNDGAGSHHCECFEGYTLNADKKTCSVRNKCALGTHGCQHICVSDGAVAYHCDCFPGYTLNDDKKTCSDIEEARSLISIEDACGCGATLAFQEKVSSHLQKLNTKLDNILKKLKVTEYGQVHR

stoichiometry N: 4
Substance: matrilin-3 (wild type, mouse) (from UniProt O35701 28-481) (natural protein)

Reference: paper PMC3744072
